Measured values reported in article doi:10.1101/2020.07.31.231746 (2020).

Target: WT ACE2(740)-Fc (human, UniProt Q9BYF1 18-740)
Assay: BLI

B1: HCoV-NL63 spike RBD (domain or fragment)
chain: QHTDINFTATASFGGSCYVCKPHQVNISLNGNTSVCVRTSHFSIRYIYNRVKSGSPGDSSWHIYLKSGTCPFSFSKLNNFQKFKTICFSTVEVPGSCNFPLEATWHYTSYTIVGALYVTWSEGNSITGVPYPVSGI
- Kd: 22 nM
